B1: [Aib8,Glu23,Glu34,Lys35,Aib36,Lys37]-GLP-1-(7-37)-peptidyl-Glu-Phe-Leu amide (peptide)
peptide: H[Aib]EGTFTSDVSSYLEGEAAKEFIAWLVEK[Aib]KEFL-NH2
modifications: N-terminus assumed
SMILES: CC[C@H](C)[C@H](NC(=O)[C@H](Cc1ccccc1)NC(=O)[C@H](CCC(=O)O)NC(=O)[C@H](CCCCN)NC(=O)[C@H](C)NC(=O)[C@H](C)NC(=O)[C@H](CCC(=O)O)NC(=O)CNC(=O)[C@H](CCC(=O)O)NC(=O)[C@H](CC(C)C)NC(=O)[C@H](Cc1ccc(O)cc1)NC(=O)[C@H](CO)NC(=O)[C@H](CO)NC(=O)[C@@H](NC(=O)[C@H](CC(=O)O)NC(=O)[C@H](CO)NC(=O)[C@@H](NC(=O)[C@H](Cc1ccccc1)NC(=O)[C@@H](NC(=O)CNC(=O)[C@H](CCC(=O)O)NC(=O)C(C)(C)NC(=O)[C@@H](N)Cc1c[nH]cn1)[C@@H](C)O)[C@@H](C)O)C(C)C)C(=O)N[C@@H](C)C(=O)N[C@@H](Cc1c[nH]c2ccccc12)C(=O)N[C@@H](CC(C)C)C(=O)N[C@H](C(=O)N[C@@H](CCC(=O)O)C(=O)N[C@@H](CCCCN)C(=O)NC(C)(C)C(=O)N[C@@H](CCCCN)C(=O)N[C@@H](CCC(=O)O)C(=O)N[C@@H](Cc1ccccc1)C(=O)N[C@@H](CC(C)C)C(N)=O)C(C)C
B2: [Aib8,Val25,Glu34,Lys35,Aib36,Lys37]-GLP-1-(7-37)-peptidyl-Glu-Phe-Leu amide (peptide)
peptide: H[Aib]EGTFTSDVSSYLEGQAVKEFIAWLVEK[Aib]KEFL-NH2
modifications: N-terminus assumed
SMILES: CC[C@H](C)[C@H](NC(=O)[C@H](Cc1ccccc1)NC(=O)[C@H](CCC(=O)O)NC(=O)[C@H](CCCCN)NC(=O)[C@@H](NC(=O)[C@H](C)NC(=O)[C@H](CCC(N)=O)NC(=O)CNC(=O)[C@H](CCC(=O)O)NC(=O)[C@H](CC(C)C)NC(=O)[C@H](Cc1ccc(O)cc1)NC(=O)[C@H](CO)NC(=O)[C@H](CO)NC(=O)[C@@H](NC(=O)[C@H](CC(=O)O)NC(=O)[C@H](CO)NC(=O)[C@@H](NC(=O)[C@H](Cc1ccccc1)NC(=O)[C@@H](NC(=O)CNC(=O)[C@H](CCC(=O)O)NC(=O)C(C)(C)NC(=O)[C@@H](N)Cc1c[nH]cn1)[C@@H](C)O)[C@@H](C)O)C(C)C)C(C)C)C(=O)N[C@@H](C)C(=O)N[C@@H](Cc1c[nH]c2ccccc12)C(=O)N[C@@H](CC(C)C)C(=O)N[C@H](C(=O)N[C@@H](CCC(=O)O)C(=O)N[C@@H](CCCCN)C(=O)NC(C)(C)C(=O)N[C@@H](CCCCN)C(=O)N[C@@H](CCC(=O)O)C(=O)N[C@@H](Cc1ccccc1)C(=O)N[C@@H](CC(C)C)C(N)=O)C(C)C
B3: [Aib8,Pro22,Glu23,Val25,Glu34,Lys35,Aib36,Lys37]-GLP-1-(7-37)-peptidyl-Glu-Phe-Leu amide (peptide)
peptide: H[Aib]EGTFTSDVSSYLEPEAVKEFIAWLVEK[Aib]KEFL-NH2
modifications: N-terminus assumed
SMILES: CC[C@H](C)[C@H](NC(=O)[C@H](Cc1ccccc1)NC(=O)[C@H](CCC(=O)O)NC(=O)[C@H](CCCCN)NC(=O)[C@@H](NC(=O)[C@H](C)NC(=O)[C@H](CCC(=O)O)NC(=O)[C@@H]1CCCN1C(=O)[C@H](CCC(=O)O)NC(=O)[C@H](CC(C)C)NC(=O)[C@H](Cc1ccc(O)cc1)NC(=O)[C@H](CO)NC(=O)[C@H](CO)NC(=O)[C@@H](NC(=O)[C@H](CC(=O)O)NC(=O)[C@H](CO)NC(=O)[C@@H](NC(=O)[C@H](Cc1ccccc1)NC(=O)[C@@H](NC(=O)CNC(=O)[C@H](CCC(=O)O)NC(=O)C(C)(C)NC(=O)[C@@H](N)Cc1c[nH]cn1)[C@@H](C)O)[C@@H](C)O)C(C)C)C(C)C)C(=O)N[C@@H](C)C(=O)N[C@@H](Cc1c[nH]c2ccccc12)C(=O)N[C@@H](CC(C)C)C(=O)N[C@H](C(=O)N[C@@H](CCC(=O)O)C(=O)N[C@@H](CCCCN)C(=O)NC(C)(C)C(=O)N[C@@H](CCCCN)C(=O)N[C@@H](CCC(=O)O)C(=O)N[C@@H](Cc1ccccc1)C(=O)N[C@@H](CC(C)C)C(N)=O)C(C)C
B4: [Aib8,Glu23,Lys24,Val25,Glu30,His31,Glu34,Lys35,Phe36,Lys37]-GLP-1-(7-37)-peptidyl-Glu-Phe-Phe amide (peptide)
peptide: H[Aib]EGTFTSDVSSYLEGEKVKEFIEHLVEKFKEFF-NH2
modifications: N-terminus assumed
SMILES: CC[C@H](C)[C@H](NC(=O)[C@H](Cc1ccccc1)NC(=O)[C@H](CCC(=O)O)NC(=O)[C@H](CCCCN)NC(=O)[C@@H](NC(=O)[C@H](CCCCN)NC(=O)[C@H](CCC(=O)O)NC(=O)CNC(=O)[C@H](CCC(=O)O)NC(=O)[C@H](CC(C)C)NC(=O)[C@H](Cc1ccc(O)cc1)NC(=O)[C@H](CO)NC(=O)[C@H](CO)NC(=O)[C@@H](NC(=O)[C@H](CC(=O)O)NC(=O)[C@H](CO)NC(=O)[C@@H](NC(=O)[C@H](Cc1ccccc1)NC(=O)[C@@H](NC(=O)CNC(=O)[C@H](CCC(=O)O)NC(=O)C(C)(C)NC(=O)[C@@H](N)Cc1c[nH]cn1)[C@@H](C)O)[C@@H](C)O)C(C)C)C(C)C)C(=O)N[C@@H](CCC(=O)O)C(=O)N[C@@H](Cc1c[nH]cn1)C(=O)N[C@@H](CC(C)C)C(=O)N[C@H](C(=O)N[C@@H](CCC(=O)O)C(=O)N[C@@H](CCCCN)C(=O)N[C@@H](Cc1ccccc1)C(=O)N[C@@H](CCCCN)C(=O)N[C@@H](CCC(=O)O)C(=O)N[C@@H](Cc1ccccc1)C(=O)N[C@@H](Cc1ccccc1)C(N)=O)C(C)C
B5: [Aib8,Glu23,Val25,Glu34,Lys35,Val36,Lys37]-GLP-1-(7-37)-peptidyl-Glu-Lys amide (peptide)
peptide: H[Aib]EGTFTSDVSSYLEGEAVKEFIAWLVEKVKEK-NH2
modifications: N-terminus assumed
SMILES: CC[C@H](C)[C@H](NC(=O)[C@H](Cc1ccccc1)NC(=O)[C@H](CCC(=O)O)NC(=O)[C@H](CCCCN)NC(=O)[C@@H](NC(=O)[C@H](C)NC(=O)[C@H](CCC(=O)O)NC(=O)CNC(=O)[C@H](CCC(=O)O)NC(=O)[C@H](CC(C)C)NC(=O)[C@H](Cc1ccc(O)cc1)NC(=O)[C@H](CO)NC(=O)[C@H](CO)NC(=O)[C@@H](NC(=O)[C@H](CC(=O)O)NC(=O)[C@H](CO)NC(=O)[C@@H](NC(=O)[C@H](Cc1ccccc1)NC(=O)[C@@H](NC(=O)CNC(=O)[C@H](CCC(=O)O)NC(=O)C(C)(C)NC(=O)[C@@H](N)Cc1c[nH]cn1)[C@@H](C)O)[C@@H](C)O)C(C)C)C(C)C)C(=O)N[C@@H](C)C(=O)N[C@@H](Cc1c[nH]c2ccccc12)C(=O)N[C@@H](CC(C)C)C(=O)N[C@H](C(=O)N[C@@H](CCC(=O)O)C(=O)N[C@@H](CCCCN)C(=O)N[C@H](C(=O)N[C@@H](CCCCN)C(=O)N[C@@H](CCC(=O)O)C(=O)N[C@@H](CCCCN)C(N)=O)C(C)C)C(C)C
B6: [Aib8,Glu22,Glu23,Val25,Glu34,Lys35,Val36,Lys37]-GLP-1-(7-37)-peptidyl-Glu-Leu-Leu amide (peptide)
peptide: H[Aib]EGTFTSDVSSYLEEEAVKEFIAWLVEKVKELL-NH2
modifications: N-terminus assumed
SMILES: CC[C@H](C)[C@H](NC(=O)[C@H](Cc1ccccc1)NC(=O)[C@H](CCC(=O)O)NC(=O)[C@H](CCCCN)NC(=O)[C@@H](NC(=O)[C@H](C)NC(=O)[C@H](CCC(=O)O)NC(=O)[C@H](CCC(=O)O)NC(=O)[C@H](CCC(=O)O)NC(=O)[C@H](CC(C)C)NC(=O)[C@H](Cc1ccc(O)cc1)NC(=O)[C@H](CO)NC(=O)[C@H](CO)NC(=O)[C@@H](NC(=O)[C@H](CC(=O)O)NC(=O)[C@H](CO)NC(=O)[C@@H](NC(=O)[C@H](Cc1ccccc1)NC(=O)[C@@H](NC(=O)CNC(=O)[C@H](CCC(=O)O)NC(=O)C(C)(C)NC(=O)[C@@H](N)Cc1c[nH]cn1)[C@@H](C)O)[C@@H](C)O)C(C)C)C(C)C)C(=O)N[C@@H](C)C(=O)N[C@@H](Cc1c[nH]c2ccccc12)C(=O)N[C@@H](CC(C)C)C(=O)N[C@H](C(=O)N[C@@H](CCC(=O)O)C(=O)N[C@@H](CCCCN)C(=O)N[C@H](C(=O)N[C@@H](CCCCN)C(=O)N[C@@H](CCC(=O)O)C(=O)N[C@@H](CC(C)C)C(=O)N[C@@H](CC(C)C)C(N)=O)C(C)C)C(C)C
B7: [Aib8,Val25,Gln27,Gln34,Lys35,Aib36,Lys37]-GLP-1-(7-37)-peptidyl-Gln-Phe-Leu amide (peptide)
peptide: H[Aib]EGTFTSDVSSYLEGQAVKQFIAWLVQK[Aib]KQFL-NH2
modifications: N-terminus assumed
SMILES: CC[C@H](C)[C@H](NC(=O)[C@H](Cc1ccccc1)NC(=O)[C@H](CCC(N)=O)NC(=O)[C@H](CCCCN)NC(=O)[C@@H](NC(=O)[C@H](C)NC(=O)[C@H](CCC(N)=O)NC(=O)CNC(=O)[C@H](CCC(=O)O)NC(=O)[C@H](CC(C)C)NC(=O)[C@H](Cc1ccc(O)cc1)NC(=O)[C@H](CO)NC(=O)[C@H](CO)NC(=O)[C@@H](NC(=O)[C@H](CC(=O)O)NC(=O)[C@H](CO)NC(=O)[C@@H](NC(=O)[C@H](Cc1ccccc1)NC(=O)[C@@H](NC(=O)CNC(=O)[C@H](CCC(=O)O)NC(=O)C(C)(C)NC(=O)[C@@H](N)Cc1c[nH]cn1)[C@@H](C)O)[C@@H](C)O)C(C)C)C(C)C)C(=O)N[C@@H](C)C(=O)N[C@@H](Cc1c[nH]c2ccccc12)C(=O)N[C@@H](CC(C)C)C(=O)N[C@H](C(=O)N[C@@H](CCC(N)=O)C(=O)N[C@@H](CCCCN)C(=O)NC(C)(C)C(=O)N[C@@H](CCCCN)C(=O)N[C@@H](CCC(N)=O)C(=O)N[C@@H](Cc1ccccc1)C(=O)N[C@@H](CC(C)C)C(N)=O)C(C)C

Where no end group is shown, it is not given here. [ ]: non-standard residue; d: D form. Aib = CC(C)(N)C(=O)O

The assay deals with human GLP-1 receptor (human, UniProt P43220). The assay is described as follows: cell-based or functional assay.
For HGEGTFTSDVSSYLEEEAVKEFIAWLVEKVKEKL-NH2 [[Gly8,Glu22,Glu23,Val25,Glu34,Lys35,Val36,Lys37]-GLP-1-(7-37)-peptidyl-Glu-Lys-Leu amide], the “CRE luciferase EC50, 0% HSA” value was 0.3 nM and the “CRE luciferase EC50, 1% HSA” value amounted to 0.076 nM.
The corresponding values for B1 are 0.163 nM and 0.143 nM.
For B2, in that order: 0.161 nM and 0.074 nM.
For the molecule HAEGTFTSDVSSYLEGQKAKEFIAWLVEGVKEFL-NH2 [[Lys24,Glu34,Val36,Lys37]-GLP-1-(7-37)-peptidyl-Glu-Phe-Leu amide], the “CRE luciferase EC50, 0% HSA” value came to 0.702 nM and the “CRE luciferase EC50, 1% HSA” value stood at 0.112 nM.
The corresponding values for HAEGTFTSDVSSYLEGQAAKEFIAWLVEKVKEFL-NH2 [[Glu34,Lys35,Val36,Lys37]-GLP-1-(7-37)-peptidyl-Glu-Phe-Leu amide] are 0.116 nM and 0.023 nM.
For HAEGTFTSDVSSYLEGQAAKEFIAWLVEKVKEFLE-NH2 [[Glu34,Lys35,Val36,Lys37]-GLP-1-(7-37)-peptidyl-Glu-Phe-Leu-Glu amide], in that order: 0.114 nM and 0.028 nM.
For B3, in that order: 7.53 nM and 0.936 nM.
With HAEGTFTSDVSSYLEGQAAKEFIAWLVEKVKEHL-NH2 [[Glu34,Lys35,Val36,Lys37]-GLP-1-(7-37)-peptidyl-Glu-His-Leu amide], the “CRE luciferase EC50, 0% HSA” value worked out at 0.04 nM and the “CRE luciferase EC50, 1% HSA” value was determined as 0.01 nM.
The corresponding values for B4 are 5.42 nM and 1.16 nM.
B5: the “CRE luciferase EC50, 0% HSA” value is 0.043 nM and the “CRE luciferase EC50, 1% HSA” value stood at 0.014 nM.
In the case of B6, the “CRE luciferase EC50, 0% HSA” value worked out at 0.439 nM and the “CRE luciferase EC50, 1% HSA” value stood at 0.11 nM.
For B7, the “CRE luciferase EC50, 0% HSA” value was determined as 0.601 nM and the “CRE luciferase EC50, 1% HSA” value turned out to be 0.229 nM.
